Numbering of substitutions follows the chain as printed.

To fix the notation:
B1: hSG16.17 vH3 vK2 (antibody, V domains shown)
VH: QVQLVQSGAEVKKPGASVKLSCKASGYTFTDYYIHWVRQAPGQGLEWIGYINPNSGYTNYAQKFQGRATMTADKSINTAYVELSRLRSDDTAVYFCTRYMWERVTGFFDFWGQGTMVTVSS
VL: DIQMTQSPSSVSASVGDRVTITCLASEDISDDLAWYQQKPGKAPKVLVYTTSSLQSGVPSRFSGSGSGTDFTLTISSLQPEDFATYFCQQTYKFPPTFGGGTKVEIKR
notes: also called hSG16.17 9; VH3 VK2 humanized antibody
B2: hSG16.17 vH1 vK3 (antibody, V domains shown)
VH: B1 VH with G8R, N59K, A61N, Q62E, K63N, Q65K, G66T
VL: B1 VL with L24R
notes: also called hSG16.17 2
B3: hSG16.17 vH1 vK5 (antibody, V domains shown)
VH: B1 VH with G8R, N59K, A61N, Q62E, K63N, Q65K, G66T
VL: B1 VL with L24R, P40S
notes: also called hSG16.17 4
B4: hSG16.17 vH3 vK3 (antibody, V domains shown)
VH: B1 VH
VL: B1 VL with L24R
notes: also called hSG16.17 10
B5: hSG16.17 vH5 vK3 (antibody, V domains shown)
VH: B1 VH with L20V, N59K, A61N, Q62E, K63N, Q65K, G66T, I76T, R85S, D89E
VL: B1 VL with L24R
notes: also called hSG16.17 18
B6: hSG16.17 vH3 vK5 (antibody, V domains shown)
VH: B1 VH
VL: B1 VL with L24R, P40S
notes: also called hSG16.17 12
B7: hSG16.17 vH5 vK2 (antibody, V domains shown)
VH: B1 VH with L20V, N59K, A61N, Q62E, K63N, Q65K, G66T, I76T, R85S, D89E
VL: B1 VL
notes: also called hSG16.17 17
B8: hSG16.17 vH1 vK4 (antibody, V domains shown)
VH: B1 VH with G8R, N59K, A61N, Q62E, K63N, Q65K, G66T
VL: B1 VL with S53R, L78M, T85D
notes: also called hSG16.17 3
B9: hSG16.17 vH1 vK2 (antibody, V domains shown)
VH: B1 VH with G8R, N59K, A61N, Q62E, K63N, Q65K, G66T
VL: B1 VL
notes: also called hSG16.17 1
B10: hSG16.17 vH3 vK4 (antibody, V domains shown)
VH: B1 VH
VL: B1 VL with S53R, L78M, T85D
notes: also called hSG16.17 11
B11: hSG16.45 vH1 vK1 (antibody, V domains shown)
VH: EVQLLESGGGLVQPGGSLRLSCAASGFTFNDHWMTWIRQAPGKGLEWISSITNTGGATYYLDSVKGRFTISRDNSKNTLYLQMNSLRAEDTAVYYCTSPGLYFDYWGQGVMVTVSS
VL: EIVLTQSPGTLSASPGERVTISCRASSSVSVMYWYQHKPGQAPRLLIYSTSSLASGVPDRFSGSGSGTDYTLTISRMEPEDFAVYYCHQWSSDPPTFGQGTKLEIKR
notes: also called hSG16.45 1
B12: rat SG16.45 antibody (antibody, V domains shown)
VH: B11 VH with L5V, G16R, R19K, A23V, K43R, S75A, N77S, A88S, V93T
VL: EIVLTQSPTTTAASPGEKVTITCLATSSVSVMYWYQHKSGASPKLLIYSTSSLASGVPDRFSGSGSGTSYSLTINTMEAEDAATYYCHQWSSDPPTFGSGTKLEIKR
notes: Rat monoclonal antibody; also called rSG16.45; hybridoma well 45
B13: cSG16.45 (antibody, V domains shown)
VH: B11 VH with L5V, G16R, R19K, A23V, K43R, S75A, N77S, A88S, V93T
VL: B12 VL
notes: also called chimeric SG16.45
B14: hSG16.45 vH6 vK2 (antibody, V domains shown)
VH: B11 VH with L5V, G16R, I37V, I48V, S50G, L61A, S75A, T78S, V93L, V110T
VL: B11 VL with A13L, V19A, I21L, H37Q, V57I, Y70F, M77L
notes: also called hSG16.45 22
B15: hSG16.45 vH6 vK5 (antibody, V domains shown)
VH: B11 VH with L5V, G16R, I37V, I48V, S50G, L61A, S75A, T78S, V93L, V110T
VL: B11 VL with A13L, V19A, I21L, R24L, S26T, V57I, M77L
notes: also called hSG16.45 24
B16: hSG16.45 vH3 vK5 (antibody, V domains shown)
VH: B11 VH with S50A, L61A, N77S
VL: B11 VL with A13L, V19A, I21L, R24L, S26T, V57I, M77L
notes: also called hSG16.45 12
B17: hSG16.45 vH5 vK5 (antibody, V domains shown)
VH: B11 VH with L5V, I37V, E46V, I48V, L61A, S75A, V110T
VL: B11 VL with A13L, V19A, I21L, R24L, S26T, V57I, M77L
notes: also called hSG16.45 20
B18: hSG16.45 vH5 vK1 (antibody, V domains shown)
VH: B11 VH with L5V, I37V, E46V, I48V, L61A, S75A, V110T
VL: B11 VL
notes: also called hSG16.45 17
B19: hSG16.45 vH1 vK3 (antibody, V domains shown)
VH: B11 VH
VL: B11 VL with A13L, V19A, M77L
notes: also called hSG16.45 3
B20: hSG16.45 vH1 vK2 (antibody, V domains shown)
VH: B11 VH
VL: B11 VL with A13L, V19A, I21L, H37Q, V57I, Y70F, M77L
notes: also called hSG16.45 2
B21: hSG16.45 vH4 vK3 (antibody, V domains shown)
VH: B11 VH with I37V, L61A, N77S, V110T
VL: B11 VL with A13L, V19A, M77L
notes: also called hSG16.45 15
B22: hSG16.45 vH5 vK3 (antibody, V domains shown)
VH: B11 VH with L5V, I37V, E46V, I48V, L61A, S75A, V110T
VL: B11 VL with A13L, V19A, M77L
notes: also called hSG16.45 19
B23: hSG16.45 vH6 vK1 (antibody, V domains shown)
VH: B11 VH with L5V, G16R, I37V, I48V, S50G, L61A, S75A, T78S, V93L, V110T
VL: B11 VL
notes: also called hSG16.45 21
B24: hSG16.45 vH4 vK2 (antibody, V domains shown)
VH: B11 VH with I37V, L61A, N77S, V110T
VL: B11 VL with A13L, V19A, I21L, H37Q, V57I, Y70F, M77L
notes: also called hSG16.45 14
B25: hSG16.45 vH4 vK5 (antibody, V domains shown)
VH: B11 VH with I37V, L61A, N77S, V110T
VL: B11 VL with A13L, V19A, I21L, R24L, S26T, V57I, M77L
notes: also called hSG16.45 16
B26: hSG16.45 vH5 vK2 (antibody, V domains shown)
VH: B11 VH with L5V, I37V, E46V, I48V, L61A, S75A, V110T
VL: B11 VL with A13L, V19A, I21L, H37Q, V57I, Y70F, M77L
notes: also called hSG16.45 18
B27: hSG16.45 vH4 vK1 (antibody, V domains shown)
VH: B11 VH with I37V, L61A, N77S, V110T
VL: B11 VL
notes: also called hSG16.45 13
B28: hSG16.45 vH6 vK3 (antibody, V domains shown)
VH: B11 VH with L5V, G16R, I37V, I48V, S50G, L61A, S75A, T78S, V93L, V110T
VL: B11 VL with A13L, V19A, M77L
notes: also called hSG16.45 23
B29: hSG16.45 vH1 vK5 (antibody, V domains shown)
VH: B11 VH
VL: B11 VL with A13L, V19A, I21L, R24L, S26T, V57I, M77L
notes: also called hSG16.45 4

The assay has as its target T1, human BCMA (B-cell maturation antigen, CD269) expressed on cells (human, UniProt Q02223 1-184).
T1 construct: Endogenous on myeloma lines (NCI-H929, U266, JJN3) or a full-length clone transfected into HEK 293 cells; also called hBCMA; BCMA expressed on NCI-H929 cells
T1 sequence: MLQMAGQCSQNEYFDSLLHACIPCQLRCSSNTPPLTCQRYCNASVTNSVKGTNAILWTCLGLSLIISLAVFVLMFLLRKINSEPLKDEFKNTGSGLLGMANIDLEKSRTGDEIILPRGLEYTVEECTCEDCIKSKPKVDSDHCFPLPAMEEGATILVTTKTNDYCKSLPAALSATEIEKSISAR
As to the kind of experiment: cell binding, NCI-H929 cells expressing BCMA, 3-pt assay. On the procedure: The six humanized heavy chains and four humanized light chains were tested in all 24 possible permutations for binding to BCMA expressed on NCI-H929 cells, which express about 50,000 molecules of BCMA per cell.
As to B1, the binding result is on record as “binds”.

Take B2: the binding result is on record as “binds”.

For the molecule B3, the binding result was “binds”.

Take B4: the binding result was “binds”.

With B5, the binding result is reported as “binds”.

In the case of B6, the binding result is “binds”.

Regarding B7, the binding result is on record as “binds”.

B8: the binding result is “binds”.

On to B9, for which the binding result is reported as “binds”.

For B10, the binding result is given as “binds”.

Regarding B11, the binding result was “binds”.

Turning to B12, the binding result is “binds”.

Consider B13, for which the binding result was “binds”.

Regarding B14, the binding result was “binds”.

For B15, the binding result is “binds”.

B16: the binding result is recorded as “binds”.

On to B17, for which the binding result is recorded as “binds”.

Consider B18, for which the binding result was “binds”.

With B19, the binding result is recorded as “binds”.

Turning to B20, the binding result is given as “binds”.

On to B21, for which the binding result is “binds”.

B22: the binding result is reported as “binds”.

Turning to B23, the binding result is recorded as “binds”.

For B24, the binding result was “binds”.

For B25, the binding result was “binds”.

For B26, the binding result is “binds”.

In the case of B27, the binding result was “binds”.

For the molecule B28, the binding result is on record as “binds”.

For the molecule B29, the binding result is on record as “binds”.

The values are drawn from patent US20200002431A1 (Seagen, published 2020).
